Assay results as given in patent publication US20070110818A1, “Milk fractions and milk preparations for treating and/or preventing cox-2 mediated diseases” (priority 2003, published 2007).

Biological target: T1, COX-2 (Homo sapiens, UniProt P35354)
T1 construct: treated with 100 nM (nmol/l) phorbol 12-myristate 13-acetate for 6 h at 37° C. to induce COX-2 isoenzyme; endogenous in cells; host or cells: HUV-EC-C (ATCC CRL1730), PMA-induced
T1 sequence (P35354 18-604): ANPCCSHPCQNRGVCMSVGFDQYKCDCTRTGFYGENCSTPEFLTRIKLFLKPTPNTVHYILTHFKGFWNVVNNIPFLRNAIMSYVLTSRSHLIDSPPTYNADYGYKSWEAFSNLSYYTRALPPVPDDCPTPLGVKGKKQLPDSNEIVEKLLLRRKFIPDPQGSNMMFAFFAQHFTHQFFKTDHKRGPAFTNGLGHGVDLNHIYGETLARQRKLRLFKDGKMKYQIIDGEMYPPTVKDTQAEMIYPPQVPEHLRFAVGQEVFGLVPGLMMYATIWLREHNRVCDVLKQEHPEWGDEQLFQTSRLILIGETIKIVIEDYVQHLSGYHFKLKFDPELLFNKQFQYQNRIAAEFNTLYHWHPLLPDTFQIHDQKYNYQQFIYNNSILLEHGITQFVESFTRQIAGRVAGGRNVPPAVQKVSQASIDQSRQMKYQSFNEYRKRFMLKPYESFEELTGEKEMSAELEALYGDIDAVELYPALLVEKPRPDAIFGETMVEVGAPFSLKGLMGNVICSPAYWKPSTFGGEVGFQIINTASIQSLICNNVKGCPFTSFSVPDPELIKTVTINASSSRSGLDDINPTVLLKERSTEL
Assay: COX-2 screening in PMA-induced HUV-EC-C cells (Prostaglandine-E2 production by RIA)
Format: cell-based
Description: HUV-EC-C cells (a permanent endothelial cell line derived from the vein of a normal human umbilical cord; ATCC CRL1730; M. Miralpeix, M. Camacho et al., Brit. J. Pharmacol. 121 (1997), 171-180), were seeded onto 96-well plates (RPMI 1640+10% FCS) and treated with 100 nM (nmol/l) phorbol 12-myristate 13-acetate for 6 h at 37° C. to induce COX-2 isoenzyme. 50 μM (μmol/l) arachidonic acid were then added and the cells were incubated in the presence of test compounds or mixtures for 30 min at 37° C. Prostaglandine-E2 production was measured by radioimmuno assay (RIA) and the radioactivity determined with a scintillation counter (Topcount, Packard) using a liquid scintillation cocktail (Packard).
The results obtained are expressed as a percent of control values and as a percent inhibition of control values obtained in the presence of the test compounds. The control values correspond to the COX-2 activity of HUV-EC-C cells after stimulation with Phorbol Myristate Acetate (PMA) during 6 hours at 37° C. (can be done also with Tumor Necrosis Factor type alpha: TNFα) in absence of test compound.
The concentration causing a half-maximal inhibition of control values (IC50 value) and Hill coefficients (nH) were determined for the reference compounds (cycloheximide) by nonlinear regression analysis of their inhibition curves. These parameters were obtained by Hill equation curve fitting. […]

B1: Lactoferrin (protein, UniProt P02788 20-710, looked up)
Lactotransferrin: GRRRSVQWCAVSQPEATKCFQWQRNMRKVRGPPVSCIKRDSPIQCIQAIAENRADAVTLDGGFIYEAGLAPYKLRPVAAEVYGTERQPRTHYYAVAVVKKGGSFQLNELQGLKSCHTGLRRTAGWNVPIGTLRPFLNWTGPPEPIEAAVARFFSASCVPGADKGQFPNLCRLCAGTGENKCAFSSQEPYFSYSGAFKCLRDGAGDVAFIRESTVFEDLSDEAERDEYELLCPDNTRKPVDKFKDCHLARVPSHAVVARSVNGKEDAIWNLLRQAQEKFGKDKSPKFQLFGSPSGQKDLLFKDSAIGFSRVPPRIDSGLYLGSGYFTAIQNLRKSEEEVAARRARVVWCAVGEQELRKCNQWSGLSEGSVTCSSASTTEDCIALVLKGEADAMSLDGGYVYTAGKCGLVPVLAENYKSQQSSDPDPNCVDRPVEGYLAVAVVRRSDTSLTWNSVKGKKSCHTAVDRTAGWNIPMGLLFNQTGSCKFDEYFSQSCAPGSDPRSNLCALCIGDEQGENKCVPNSNERYYGYTGAFRCLAENAGDVAFVKDVTVLQNTDGNNNEAWAKDLKLADFALLCLDGKRKPVTEARSCHLAMAPNHAVVSRMDKVERLKQVLLHQQAKFGRNGSDCPDKFCLFQSETKNLLFNDNTECLARLHGKTTYEKYLGPQYVAGITNLKKCSTSPLLEACEFLRK
cyclooxygenase-2 inhibiting activity (in words): not to have any cyclooxygense-2 inhibiting activity
